In paper PMC11480844 (2024):

B1: H2-Kb / Ed5 (parent complex)
chain 1: GDSVTQTEGPVTVSESESLIINCTYSATSIAYPNLFWYVRYPGEGLQLLLKVITAGQKGSSRGFEATYNKETTSFHLQKASVQESDSAVYYCALGSYNQGKLIFGQGTKLSIKP
chain 2: DTTVKQNPRYKLARVGKPVNLICSQTMNHDTMYWYQKKPNQAPKLLLFYYDKILNREADTFEKFQSSRPNNSFCSLYIGSAGLEYSAMYLCASSRRLGASQNTLYFGAGTRLSVL
chain 3: not shown
chain 4: IQKTPQIQVYSRHPPENGKPNILNCYVTQFHPPHIEIQMLKNGKKIPKVEMSDMSFSKDWSFYILAHTEFTPTETDTYACRVKHDSMAEPKTVYWDRDM
chain 5: SIINFEKL
B2: H2-Kb / Ed45 (parent complex)
chain 1: GEQVEQRPPHLSVREGDSAVIICTYTDPNSYYFFWYKQEPGAGLQLLMKVFSSTEINEGQGFTVLLNKKDKQLSLNLTAAHPGDSAVYFCAVSGTNAYKVIFGKGTHLHVLP
chain 2: EAAVTQSPRSKVAVTGGKVTLSCHQTNNHDYMYWYRQDTGHGLRLIHYSYVADSTEKGDIPDGYKASRPSQENFSLILELASLSQTAVYFCASARGFQDTQYFGPGTRLLVL
chain 3: not shown
chain 4: B1 chain 4
chain 5: SIINFEKL

Variants of: B1
Test: % of reporter cells activated (NFAT-GFP), raw
Also: test concentration or dose not given here.

ratio to parent	Variant
0.905	chain 5 F5K
0.735	chain 5 F5S
0.764	chain 5 F5R
0.374	chain 5 S1W
0.293	chain 5 S1R
0.02	chain 5 S1M
0.161	chain 5 S1C
0.0946	chain 5 S1P
0.763	chain 5 I2H
0.641	chain 5 I2R
0.66	chain 5 I2W
0.00308	chain 5 N4P
0.182	chain 5 N4L
0.756	chain 5 N4D
0.0018	chain 5 N4S
0.0536	chain 5 N4Y
0.002	chain 5 N4A

ratio to parent	Variant
0.00233	chain 5 N4E
0.00398	chain 5 N4G
0.374	chain 5 N4R
0.618	chain 5 E6V
0.491	chain 5 E6C
0.629	chain 5 L8E
0.793	chain 5 L8K
0.904	chain 5 L8R
0.783	chain 5 L8Q
0.585	chain 5 L8W
0.725	chain 5 K7M
0.714	chain 5 K7N
0.717	chain 5 K7Y
0.798	chain 5 K7H
0.657	chain 5 K7F
0.645	chain 5 K7A

The remaining lines, values behind:

Variant	ratio to parent
chain 5 F5A	1.01
chain 5 F5H	0.822
chain 5 F5E	0.848
chain 5 F5M	0.938
chain 5 F5V	0.777
chain 5 F5I	0.886
chain 5 F5Y	0.892
chain 5 F5W	0.695
chain 5 S1T	0.944
chain 5 S1Q	0.556
chain 5 S1L	0.0134
chain 5 S1D	0.629
chain 5 S1E	0.981
chain 5 I2D	0.943
chain 5 I2F	0.851
chain 5 I2V	1.01
chain 5 I2T	1
chain 5 N4T	0.04

Variant	ratio to parent
chain 5 N4I	0.274
chain 5 N4C	0.164
chain 5 N4K	0.0781
chain 5 E6Q	0.619
chain 5 E6K	0.901
chain 5 E6P	0.186
chain 5 E6A	0.606
chain 5 E6S	0.585
chain 5 E6I	0.533
chain 5 L8H	0.958
chain 5 L8M	0.752
chain 5 L8G	0.901
chain 5 L8S	0.641
chain 5 K7D	0.593
chain 5 K7E	0.632
chain 5 I3A	0.32
chain 5 I3H	0.121
chain 5 I3G	0.28

Variants of: B2
Test: % of reporter cells activated (NFAT-GFP), raw

ratio to parent	Variant
1.75	chain 5 I2Y
1.68	chain 5 I2W
1.97	chain 5 I2E
1.91	chain 5 I2Q
1.79	chain 5 L8Q
1.72	chain 5 L8C
1	chain 5 F5P
0.936	chain 5 F5T
0.797	chain 5 F5M
2.33	chain 5 F5W
0.495	chain 5 F5G
0.947	chain 5 F5Q
0.719	chain 5 F5L
0.0805	chain 5 S1M
0.177	chain 5 S1E
0.191	chain 5 S1K
0.0583	chain 5 S1L
0.0752	chain 5 E6R
0.317	chain 5 E6W

ratio to parent	Variant
0.715	chain 5 E6G
0.0695	chain 5 N4Y
0.183	chain 5 N4C
1.11	chain 5 N4I
0.241	chain 5 N4D
0.261	chain 5 N4F
0.0624	chain 5 N4Q
0.0865	chain 5 N4V
1.34	chain 5 N4L
2.06	chain 5 K7R
0.891	chain 5 K7P
1.25	chain 5 K7H
0.253	chain 5 K7T
1.21	chain 5 K7M
1.57	chain 5 I3W
2.34	chain 5 I3P
0.537	chain 5 I3Y
1.81	chain 5 I3C
1.87	chain 5 I3G

Further lines, the variant ahead of its results:

Variant	ratio to parent
chain 5 I2S	1.32
chain 5 I2G	1.62
chain 5 I2N	1.33
chain 5 L8V	1.43
chain 5 L8H	1.66
chain 5 L8N	1.6
chain 5 L8R	1.77
chain 5 L8F	1.79
chain 5 L8T	1.72
chain 5 F5Y	1.63
chain 5 F5H	1.28
chain 5 F5K	1.19
chain 5 F5D	1.54
chain 5 S1W	0.347
chain 5 S1Y	0.775
chain 5 S1C	0.234
chain 5 S1F	0.0609
chain 5 S1V	0.0654
chain 5 S1P	0.0861
chain 5 S1D	0.424
chain 5 S1H	0.638
chain 5 E6Q	0.738

Variant	ratio to parent
chain 5 E6N	1.11
chain 5 E6F	0.188
chain 5 E6T	0.91
chain 5 E6D	0.542
chain 5 E6I	0.155
chain 5 N4P	0.0883
chain 5 N4G	1.18
chain 5 N4S	0.0823
chain 5 N4E	1.11
chain 5 K7D	0.247
chain 5 K7V	0.895
chain 5 K7S	1.34
chain 5 K7Y	1.03
chain 5 K7G	0.872
chain 5 K7I	0.349
chain 5 I3F	0.726
chain 5 I3D	2.15
chain 5 I3E	2.17
chain 5 I3L	1.61
chain 5 I3Q	2.26
chain 5 I3T	1.86
